Test system: T1, C[S+](CC[C@H](N)C(=O)O)C[C@H]1O[C@@H](n2cnc3c(N)ncnc32)[C@H](O)[C@@H]1O
T1 construct: C-terminal 8xHis tag kept; expressed in Streptomyces lividans TK23; Ni-NTA purified; homodimer
Test: HPLC-HR-ESI-MS of APDS-derivatized ACC; Michaelis-Menten fit
Format: biochemical, Streptomyces violaceusniger
Conditions: 50 mM sodium phosphate pH 8.0, 30 °C, 60 min, PLP enzyme, unit typeset as 'mm' in text

## rOrf30 (Orf30) (Streptomyces violaceusniger)
  Km: 1.09 ± 0.33 mM
  kcat: 0.0049 ± 0.00068 s⁻¹

From PMC7277169, “C-Methylation of S-adenosyl-L-Methionine Occurs Prior to Cyclopropanation in the Biosynthesis of 1-Amino-2-Methylcyclopropanecarboxylic Acid (Norcoronamic Acid) in a Bacterium” (Biomolecules, 2020)
